Measurements published in the nanobody polyreactivity screen of Harvey et al. (2022).

Experiment: yeast display, Sf9 membrane polyspecificity reagent, FACS + sequencing; frameworks hold sequencing errors
Outline: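 Genes from sorted yeast were amplified by colony PCR, read by MiSeq 2 × 250 sequencing and filtered on CDR length. These cells carried a synthetic nanobody library in Saccharomyces cerevisiae BJ5465 and were sorted by FACS into low and high (top ~1%) gates on anti-HA and streptavidin fluorescence. Polyreactivity is labelled according to the gate of origin.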

Sequence	polyreactivity (PSR sort gate)
QVQLVESGGGLVQAGGSLRLSCAASGSTLSYNAMGWYRQAPGKERELVAAISWSDGGTYYADSVKGRFTISRDTAKNTVFLQMNSLKPEDTAVYYCAARRGVRYSKFGYYYWGQGTQVTVSS	high polyreactivity
QVQLVESGGGLVQAGGSLRLSCAASGSTLTPNAMGWYRQAPGKERELVAAISRSGGSTYYADSVKGRFTISRDNAKNTVYLQRNSLKPEDTAVYYCRGYYIGIRAYGYWGQGTQVTVSS	high polyreactivity
QVQLVESGGGLVQAGGSLRLSCAASGSTLTYNAMGWYRQAPGKERELVADITS	low polyreactivity
QVQLVESGGGLVQAGGSLRLSCAASGSTLTYYVMGWSRQAPGKERELVAAITDSGGGTYYADSVKGRFTISRDNAKNTVYLQMNSLKPEDTAVYYCNAYYPYGLASFYYWGQGTQVTVSS	low polyreactivity
QVQLVESGGGLVQAGGSLRLSCAASGSTLVANAMGWYRQAPGKERELVAAISSGGITYYADSVKGRFTISRDNAKNTVYLQMHSLKPEDTAVYYCAARIRGTWKYGYWGQGTQVTVSS	low polyreactivity
QVQLVESGGGLVQAGGSLRLSCAASGSTLVFSAMGWYRQAPGKERELVAAITRSGGSTYYADSVKGRFTITRDNAKNTVYLQMNSLKPEDTAVYYCAADERYIYERDSWGQGTQVSVSS	low polyreactivity
QVQLVESGGGLVQAGGSLRLSCAASGSTLVGYVMGWYRQAPGKERELVAAITTVGSTYYADSVKGRFTISRDNAKNTVYLQMNSLKPEDTAVYYCNAVRAYVDLRTGHFRGDYWGQGTQVTVSS	low polyreactivity
QVQLVESGGGLVQAGGSLRLSCAASGSTLVLNAMGWYRQAPGKERELVAAISRGGGSTSYADSVKGRFTISRDNAKNTVYLQMNSLKPEDTAVYYCNAYTYYHANHEQGFGYWGQGTQVTVSS	low polyreactivity
QVQLVESGGGLVQAGGSLRLSCAASGSTLVLNAMGWYRQAPGKERELVAAITISGDTTYYADSVKGRFTISRDNAKNTVYLQMNSLKPEDTAVYYCAVDSFLVYSAVRPYDYWGQGTQVTVSS	low polyreactivity
QVQLVESGGGLVQAGGSLRLSCAASGSTLVSNAMGWYIQAPGKEREFVAAINSSGSRTYYADSVKGRFTISRDNANNTVYLQMNSLKPEDTAVYYCAAGYWNDFDWGQVTQVTVSS	low polyreactivity
QVQLVESGGGLVQAGGSLRLSCAASGSTLVWNAMGWYRQAPGKERELVAGITTSGGSTSYADSVKGRFTISRDNAKNTVYLQMNSLKQEDTAVYYCAVDAAIYTNKLDYWGQGTQVTVSS	low polyreactivity
QVQLVESGGGLVQAGGSLRLSCAASGSTLWFNAMGWYRQAPGKERELVAAINWSGGSTYYADSVKGRFTISRDNAKNTVYLQMNSLKPEDTAVYYCAAVYQYVHYVWYDYWGQGTQVTVSS	low polyreactivity
QVQLVESGGGLVQAGGSLRLSCAASGSTLWGYVMGWYRQAPGKERELVAVISKSGGSTYYADSVKGRFTISRDNANNTVYLQMNSLKPEDTAVYYCATRWPYRSDWGQGTQVTVSS	high polyreactivity
QVQLVESGGGLVQAGGSLRLSCAASGSTLWRYAMGWYRQAPGKERELVAGISRGGGSTYYADSVKGRFTISRDNANKTVYLQKNSLKPEDTAVYYCAADDPLYSISTGDYWGQGTQVTVSL	low polyreactivity
QVQLVESGGGLVQAGGSLRLSCAASGSTLWVYAMGSYRQAPGKERELVAAITQSTGDTHYADSVKGRFTISRDNAKNTVYLQMNSLKPEDTAVYYCAADSYLSVYDPYGYWGQGTQVTVSS	low polyreactivity
QVQLVESGGGLVQAGGSLRLSCAASGSTLWYYAMGWYRQAPGKERELVADITSSGNTNYADSVKGRFTISRDNAKNTVYLQMNSLKPEDTAVYYCAADSANYQWYLSWQKDDYWGQGTQVTVSS	low polyreactivity
QVQLVESGGGLVQAGGSLRLSCAASGSTLYFNAMGWYRQAPGKERELVATITSGGSTYYADSVKGRFTISRDNAKNTVYFQMNSLKPEDTAVYYCNADFGSYATNGMTPLYDYWGQGTQVTVSS	high polyreactivity
QVQLVESGGGLVQAGGSLRLSCAASGSTLYKYAMGWYRQAPGKERELVATITRTDSTNYADSVKGRFTISRDNAKNTVYLQMNSLKPEDTAVYYCNRGFDWWYRYRHYDYWGQGTQVTVSS	low polyreactivity
QVQLVESGGGLVQAGGSLRLSCAASGSTLYPNAMGWYRQAPGKERELVAAIRRRGGSTYYADSVKGRFTISRDNAKNTVYLQMNSLKPEDTAVYYCAAYPYKQDPTLVHYDYWGQGTQVTVSS	low polyreactivity
QVQLVESGGGLVQAGGSLRLSCAASGSTLYPYDMGWYRQAPGKERELVAAIDSGGSTNYADSVKGRFTISRDNAKNTVYLQMNSLKPEDTAVYYCAADASGENDYWGQGTQVTVSS	low polyreactivity
QVQLVESGGGLVQAGGSLRLSCAASGSTLYPYDMGWYRQAPGKERELVAAIDSGGSTNYADSVKGRFTISRDNAKNTVYLQMNSLKPEDTAVYYCATEILTAARDTVVYQFYLGYYYWGQGTQVTVSS	low polyreactivity

Sequence	polyreactivity (PSR sort gate)
QVQLVESGGGLVQAGGSLRLSCAASGSTLYQYAMGWYRQAPGKERELVAAITKSGGRTYYADSVKGRFTISRDNAKNTVYLQMNSLKPEDTAVYYCNVVRGSYSSGGDYWGQGTQVTVSA	high polyreactivity
QVQLVESGGGLVQAGGSLRLSCAASGSTLYSYAMGWYRQAPGKERELVAAISIGGRTYYADSVKGRFTISRDNAKNTVYLQMNSLKPEDTAVYYCNKYYGPRTYLSAQGRSYGYWGQGTQVTVSS	high polyreactivity
QVQLVESGGGLVQAGGSLRLSCAASGSTLYTYAMGWYRQAPGKERELVAAISYTGGRTYYADSVKGRFTISRDNAKNTVYLQMNSLKPEDTAVYYCAARFKSVGYDYWGQGTQVTVSS	high polyreactivity
QVQLVESGGGLVQAGGSLRLSCAASGSTLYTYDMGWYRQAPGKERELVASISGSDGSTYYADSVKGRFTISRDNAKNTVYLQMNSLKPEDTAVYYCAVDSYQTGVYFYYVYWDFDLGYWGQGTQVTVSS	low polyreactivity
QVQLVESGGGLVQAGGSLRLSCAASGSTLYWNAMGWYRQAPGKERELVADISSTGRTYYADSVKGRFTISRDNAKNTVYLQMNSLKPEDTAVYYCNADYFFEFDYWGQGTQVTVSS	low polyreactivity
QVQLVESGGGLVQAGGSLRLSCAASGSTLYYNAMGWYRQAPGKERELVAAISWSGGSTYYADSVKGRFTISRDNAKNTVYLQMNSLKPEDTAVYYCAAELSSYYDYDYWGQGTQVTVSS	low polyreactivity
QVQLVESGGGLVQAGGSLRLSCAASGSTLYYNAMGWYRQAPGKERELVAAITSGGSTSYADSVKGRFTISRDNAKNTVYLQMNSLKPEDTAVSSCAAVFYRRFDYWGQGTQVTVSS	low polyreactivity
QVQLVESGGGLVQAGGSLRLSCAASGSTLYYYAMGWYRQAPGKERELVASITGSGGNTYYADSVKGRFTISRDNAKNTVYLQMNSLKPEDTAVYYCAKRHFYRHGAYGYWGQGTQVTVSS	high polyreactivity
QVQLVESGGGLVQAGGSLRLSCAASGSTLYYYAMGWYRQAPGKERELVASITKSGASTYYADSVKGRFTISRDNAKNTVYLLMNSLKPEDTAVYYCAADVGAIYDNAENGYWGQGTQVTVSS	low polyreactivity
QVQLVESGGGLVQAGGSLRLSCAASGSTNYPNAMGWYRQAPGKESELVARISRNGGSTYADSVKGRFTISRDNAKNTVYFQMNSLKPEDTEVYYCARSYASFSWLRTKEPYEYWGQGTQVTVSS	low polyreactivity
QVQLVESGGGLVQAGGSLRLSCAASGSTRLYAMGWYRQAPGKERELVAAIRSSGSSTYYADSVKGRFTISRDNAKNTVYLQMNSLKPEDTAVYYCNADRIRKGWRYDYWGQGTQVTVSS	high polyreactivity
QVQLVESGGGLVQAGGSLRLSCAASGSTSDDNTMGWYRQAPGKERELVAAITWSGGRTSYADSVKGRFTISRDNAKNTVYLQMNSLKPEDTAVYYCAADKSGRGLDYWGQGTQVTVSS	low polyreactivity
QVQLVESGGGLVQAGGSLRLSCAASGSTSDINAMGWYRQAPGKERELVAVITDSSNTDYADSVKGRFTISRDNAKNTVYLQMNSLKPEDTADDYCAADRDEPDPYDYWGQGTQVTVSS	low polyreactivity
QVQLVESGGGLVQAGGSLRLSCAASGSTSDPYGMGWYRQAPGKERELVAAISSNGDSTYYADSVKGRFTLSRDNAKNTVYLQMNSLKPEDTAVYYCAARILYSYHLYDYWGQGTQVTVSS	high polyreactivity
QVQLVESGGGLVQAGGSLRLSCAASGSTSGTNAMGWYRQAPGKERELVATISRRGGSTYYADSVKGRFTISRDNAKNTVYLQMNSLKQDYTAVYYCAARTYGYFLYDYWGQGTQVTVSS	high polyreactivity
QVQLVESGGGLVQAGGSLRLSCAASGSTSKYYAMGWYRQAPGKERELVAAITWSDVSTYYADSVKGRFTISRDNAKNTVYLQMNSLKPEDTAVYYCNAGYDYWGQGTQVTVSS	low polyreactivity
QVQLVESGGGLVQAGGSLRLSCAASGSTSLKNAMGWYRQAPGKERELVAAINSVGDTYYADSVKGRFTISRDNAKNTVYLQMNSLKPEDTAVYYCAKRVVRYGKRMGYWGQGTQVTVSS	high polyreactivity
QVQLVESGGGLVQAGGSLRLSCAASGSTSLYNMGWYRQAPGKERELVAAIDSGSTNYADSVKGRFTISRDNAKNTVYLQMNSLKPEDTAVYYCAADGTNIGVYDRASYRDDYWGQGTQVTVSS	low polyreactivity
QVQLVESGGGLVQAGGSLRLSCAASGSTSNIYGMGWYRQAPGKERELVAGISRRGSSTYYADSVKGRFTISRDNAKNSVYLHMNSLKPEDTAVYYCNTRSGGYKHRYDYWGQGTQVTVSS	high polyreactivity
QVQLVESGGGLVQAGGSLRLSCAASGSTSPINAMGWYRQAPGKERELVAVISSSGGLTYYADSVKGRFTISRDNAKNTVYLQMNSLKPEDTAVYYCAKRFSRRQPDYDYGGQGTQVTVSS	high polyreactivity
